Values quoted from earlier work in PMC5760685.

Biological target: CRHR1 (UniProt P34998)
UniProt P34998, sequence (P34998 24-415): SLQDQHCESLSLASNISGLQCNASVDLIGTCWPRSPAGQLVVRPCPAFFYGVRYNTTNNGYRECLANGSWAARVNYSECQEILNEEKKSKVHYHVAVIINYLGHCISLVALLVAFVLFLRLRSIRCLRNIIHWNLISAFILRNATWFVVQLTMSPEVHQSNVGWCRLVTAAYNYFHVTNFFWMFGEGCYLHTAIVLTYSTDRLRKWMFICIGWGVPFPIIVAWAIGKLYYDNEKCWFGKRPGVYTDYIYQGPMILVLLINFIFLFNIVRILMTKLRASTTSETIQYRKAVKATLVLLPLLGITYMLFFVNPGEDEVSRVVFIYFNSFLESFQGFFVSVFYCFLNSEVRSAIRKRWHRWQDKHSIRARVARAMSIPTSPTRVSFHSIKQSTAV

Kd: 3 nM
Substance: CRH (from UniProt P06850)
